What is called EC50 is the midpoint of the concentration-response curve. Usually Kd stands for the constant that tells how readily two partners part at equilibrium. The koff is a measure of how fast the partners let go of each other. As usually defined, the kon is the second-order rate constant of association. Usually IC50 stands for the concentration at which inhibition is half-maximal. In general, EC50 (read off the curve) refers to the midpoint of the concentration-response curve. The EC95 is the point of the concentration-response curve where the effect stands at 95%. Low values mean an effect from little substance, high ones a need for much substance.

Assay [1] addresses T1, human CD47 (hCD47) expressed on cells (human, UniProt Q08722 19-323).
T1 construct: Transfected CHO cells or endogenous CD47 of human cells; also called CHO-hCD47; CD47 on Raji cells
The assay is described as follows: flow cytometry, Raji cells. A general note: In flow cytometry, cells or beads pass a laser one at a time.
Description: (§1) Raji cells (ATCC-CLL-86; 2×10⁵ cells/well of 96-well plate) were first incubated at +4° C. for 30 minutes with serial dilutions of anti-CD47 antibodies or control isotype antibody (in mIgG2a or mIgG1 format). The cells were then washed and incubated for 30 minutes at +4° C. with a PE-conjugated F(ab)′2 goat anti-mouse IgG antibody ( 1/100 dilution, Beckman Coulter). After washings, the fluorescence of the cells was analyzed by flow cytometry on an Accuri-C6 flow cytometer (BD Biosciences).
(§2) The delta of MFI, representing the difference between the intensity measured with the tested antibody and the intensity in the absence of antibody, was calculated for each antibody concentration and the values were plotted against the antibody concentrations. The EC50 values were then calculated by using a nonlinear regression analysis model of the GraphPad Prism software.

Assay [2] addresses T2, hu-sCD47-6His; extracellular domain of human CD47 antigen with 6His-tag (human).
T2 construct: also called hCD47-his; soluble hCD47
The assay is described as follows: SPR Biacore T200, antibody captured, hCD47-his analyte.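 Note: antibodies captured on anti-IgG (Fc) CM5 chip, five sequential 10 min antigen injections at rising concentrations, reference flow cell and antigen-free cycle as controls, 1:1 model fit.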

Assay [3] addresses T1, human CD47 (hCD47) expressed on cells. The assay is described as follows: flow cytometry, hCD47-CHO cells, competition with His-hSIRPα.
Description: Human CD47-transfected cells (3×10⁵ cells/well of 96-well plate) were first incubated at +4° C. for 30 minutes with serial dilutions of anti-CD47 antibodies or isotype control antibody (in mIgG2a or mIgG1 format). […] The percentage inhibition was plotted against antibody concentration and the IC50 values were calculated using a nonlinear regression analysis model of the GraphPad Prism software.
Assay [4] has the same target. The assay is described as follows: cell-based or functional assay.
Assay [5] shares this target. The assay is described as follows: flow cytometry, Raji cells; lower end tied to candidate 15 by Table 6.
Description: as §1, §2
For assay [6] the target is unchanged. The assay is described as follows: flow cytometry, CD47-transfected CHO cells.
Assay [7] concerns the target T3, mouse CD47 (mCD47) expressed on CHO cells (mouse, UniProt Q61735 19-303).
T3 construct: whole, on cells; also called CHO-mCD47
T3 sequence (looked up): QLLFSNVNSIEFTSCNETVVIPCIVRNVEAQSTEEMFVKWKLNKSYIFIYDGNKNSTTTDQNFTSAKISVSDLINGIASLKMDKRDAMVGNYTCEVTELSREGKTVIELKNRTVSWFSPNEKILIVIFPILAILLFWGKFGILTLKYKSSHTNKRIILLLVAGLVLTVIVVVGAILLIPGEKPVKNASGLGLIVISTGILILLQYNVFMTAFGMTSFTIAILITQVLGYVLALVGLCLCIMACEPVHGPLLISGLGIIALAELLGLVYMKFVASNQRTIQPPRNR
The assay is described as follows: flow cytometry, CHO-mCD47 cells.

The target in assay [8] is T2, hu-sCD47-6His; extracellular domain of …. The assay is described as follows: SPR Biacore T200, antibody captured, hCD47-his analyte;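 note: antibodies captured on anti-IgG (Fc) CM5 chip, five sequential 10 min antigen injections at rising concentrations, reference flow cell and antigen-free cycle as controls, 1:1 model fit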; exponent printed without minus sign, read as 10^-8. On the technique in general: Surface plasmon resonance follows binding to a sensor surface in real time, without labels.
Excerpt: (§3) An anti-human or anti-mouse IgG (Fc) was first immobilized on the surface of Serie S Sensor Chips CM5 using the human or mouse antibody capture and amine coupling kits, following the manufacturer's instructions (GE Healthcare). […] The mouse, chimerized or humanized antibodies to be tested were then captured onto the appropriate anti-mouse or anti-human IgG surface in all flow cells except flow cell 1 used as control, at concentration and contact time adjusted so that ˜300 RU were captured on the surface. Binding kinetics were studied by passing increasing concentrations of hCD47-his in a series of five 10 minute injections through all flow cells at a rate of 30 μL/min. […] Following the final injection, buffer was passed across each flow cell for 60 minutes (mouse) or 30 minutes (human) to monitor the dissociation of bound antigen. Regeneration of the binding surface was carried out at the end of the cycle by flowing 3 M MgCl₂ for 60 s at 20 μL/min followed by 10 mM glycine-HCl, pH 1.7 for 180 s at 10 μl/min (for human) or by flowing 10 mM glycine-HCl, ph 1.7 for 360 s at 10 μl/min (for mouse). A second cycle with the same antibodies but no antigen was run as a control. Kinetics binding constants were estimated by non-linear fitting of the sensogram data to the 1:1 binding model provided by the Biacore T200 evaluation software.
The target of assay [9] is T1, human CD47 (hCD47) expressed on cells. The assay can be described thus: flow cytometry, Raji cells; upper end tied to candidate 19 by Table 6.
Description: as §1, §2
Assay [10] has the same target. The assay is described as follows: flow cytometry, Raji cells, competition with His-hSIRPα.
Description: (§4) The percent inhibition was plotted against antibody concentration and the IC50 values were calculated by using a nonlinear regression analysis model of the GraphPad Prism software.
Assay [11] shares this target. The assay can be described thus: flow cytometry, Raji cells, competition with His-hSIRPα; upper end tied to candidate 19 by Table 7.
Description: as §4
Assay [12] deals with T4, N-deglycosylated soluble hCD47-His (PNGase treated) (human, N-glycans removed with PNGase).
T4 construct: also called deglycosylated-hCD47; N-Deglycosylated hCD47-His
The assay is described as follows: ELISA, one-site binding saturation fit, deglycosylated hCD47.
Description: (§5) The Bmax values were calculated by using the binding saturation/one-site binding model of the GraphPad Prism software (mean +/− SD of triplicates).

Assay [13] concerns the target T1, human CD47 (hCD47) expressed on cells. The assay is described as follows: flow cytometry, Raji cells, competition with hSIRPα.
Assay [14] addresses T4, N-deglycosylated soluble hCD47-His …. The assay can be described thus: ELISA, one-site binding saturation fit, deglycosylated hCD47. This is another data set of the same source.
Description: (§6) The equilibrium binding constant values were calculated by using the binding saturation/one-site binding model of the GraphPad Prism software (mean +/− SD of triplicates).
Assay [15] concerns the target T1, human CD47 (hCD47) expressed on cells. The assay is described as follows: flow cytometry on Raji cells, hIgG4 format, delta MFI.
Assay [16] shares this target. Described as above. The source holds these as a separate data set.
Assay [17] deals with T4, N-deglycosylated soluble hCD47-His …. The assay can be described thus: ELISA; against glycosylated hCD47-His. For orientation: An ELISA detects its analyte on a solid surface through an enzyme-linked reagent.
Description: (§7) The EC50 and EC95 values were calculated by using the non-linear regression/log (antibody) versus response (four parameters) model of the GraphPad Prism software.
The target in assay [18] is T1, human CD47 (hCD47) expressed on cells. The assay is described as follows: flow cytometry, Raji cells. This is another data set of the same source.
The target in assay [19] is T4, N-deglycosylated soluble hCD47-His …. The assay can be described thus: ELISA, coated N-deglycosylated hCD47-His.
Assay [20] addresses T3, mouse CD47 (mCD47) expressed on CHO …. The assay is described as follows: flow cytometry, CHO-mCD47 cells. The source holds these as a separate data set.
The target in assay [21] is T1, human CD47 (hCD47) expressed on cells. The assay is described as follows: flow cytometry on Raji cells, hIgG4 format: inhibition of hSIRPα binding to hCD47.
Assay [22] shares this target. The assay can be described thus: flow cytometry, Raji cells, competition with hSIRPα. This is another data set of the same source.
For assay [23] the target is unchanged. The assay can be described thus: flow cytometry on Raji cells, hIgG4 format: inhibition of hSIRPα binding to hCD47. This is another data set of the same source.
Assay [24] shares this target. The assay is described as above. This is another data set of the same source.
Assay [25] has as its target T2, hu-sCD47-6His; extracellular domain of …. The assay is described as follows: ELISA, one-site binding saturation fit, glycosylated hCD47.
Description: as §5
Assay [26] addresses T1, human CD47 (hCD47) expressed on cells. The assay can be described thus: flow cytometry on Raji cells, hIgG4 format, delta MFI. The source holds these as a separate data set.
The target of assay [27] is T2, hu-sCD47-6His; extracellular domain of …. The assay can be described thus: SPR Biacore; head read as x 10^-4.
Excerpt: as §3
Assay [28] concerns the target T1, human CD47 (hCD47) expressed on cells. The assay can be described thus: flow cytometry, Raji cells. The source holds these as a separate data set.
In assay [29] the target is T2, hu-sCD47-6His; extracellular domain of …. The assay can be described thus: ELISA, one-site binding saturation fit, glycosylated hCD47. The source holds these as a separate data set.
Description: as §6
Assay [30] has the same target. The assay is described as follows: SPR Biacore.
Excerpt: as §3
The target in assay [31] is T1, human CD47 (hCD47) expressed on cells. The assay is described as follows: flow cytometry on Raji cells, hIgG4 format, delta MFI. This is another data set of the same source.
Assay [32] addresses T2, hu-sCD47-6His; extracellular domain of …. The assay is described as follows: SPR Biacore. This is another data set of the same source.
The target in assay [33] is T1, human CD47 (hCD47) expressed on cells. The assay is described as follows: flow cytometry on Raji cells, hIgG4 format: inhibition of hSIRPα binding to hCD47. The source holds these as a separate data set.
The target in assay [34] is T2, hu-sCD47-6His; extracellular domain of …. The assay is described as follows: ELISA, coated glycosylated hCD47-His.
Description: as §7
The target in assay [35] is T1, human CD47 (hCD47) expressed on cells. The assay can be described thus: flow cytometry on Raji cells, hIgG4 format: inhibition of hSIRPα binding to hCD47. This is another data set of the same source.
Assay [36] has the same target. The assay can be described thus: flow cytometry on Raji cells, hIgG4 format, delta MFI. This is another data set of the same source.

Substitutions are numbered along the chain they refer to. Numbers in names are those of the source. Like-named read-outs stand apart in the source and are kept apart here.

B1: Candidate 15 (VT008-AL6-18G1-18K21), mouse IgG (antibody, V domains shown)
VH: QVQLQQPGAELVKPGTSVKLSCKASGYTFINYWIHWVKQRPGRGLEWIGRIDPNTVDAKYNEKFKSKATLTVDKPSSIAYMQLSSLTSEDSAVYYCSRGGYTMDYWGQGTSVTVSS
VL: DVVMTQTPLSLPVSLGDQASISCRSSQSLVHSNGNTYLHWYLQKPGQSPTLLIYKVSNRFSGVPDRFSGSGSGTDFTLKISRVEAEDLGIYFCFQSTHVPWTFGGGTKLEIK
notes: Recombinant mouse IgG2a or mIgG1 format, by assay
With B1, a half-maximal effect in assay [1] (EC50) was put at 0.031 µg/mL. In [2], this molecule registered an equilibrium dissociation constant (Kd) of 4.24 nM, an off-rate (koff) of 0.00239 s⁻¹ and a kon of 565000 M⁻¹ s⁻¹. In assay [3], this molecule gave a 50% inhibitory concentration (IC50) of 0.605 µg/mL. For the same molecule, the “Phagocytic index, Raji cells and human macrophages, antibody at 0.125 µg/mL” value (shortened to “Phagocytic index”) in assay [4] was 74.4 Raji cells ingested per 100 macrophages. Also, a half-maximal response in assay [5] (EC50) required 0.2 nM.

B2: Candidate 29 (VT008-AL6-20G7-20K7), mouse IgG (antibody, V domains shown)
VH: QVQLQQSGTELAKPGASVKLSCKASGYTFINYWIYWVKERPGQVLEWIGYINPRSDDTKYNQKFRDRATLTADKSSTTAYLQLNSLTNDDSALYYCARGGFTMDFWGQGTSVTVSS
VL: B1 VL with V30L, T50N, N58Y, I90V, F94S, S96G, W101Y
Turning to B2, in [6], the binding result is reported as “binds”.

B3: Candidate 22 (VL008-AL13-8G5-8K3), mouse IgG (antibody, V domains shown)
VH: QVQLQQPGAELVKPGASVKLSCKASGYTFTTYWMHWVKQRPGQGLEWIGMIHPNSGTTNYNEKFKSKATLTVDKSSSSTYMQLSSLTSEDSAVYYCTRSHYYDGHFSYWGQGTLVTVSA
VL: DIVMSQSPSSLAVSAGEKVTMSCKSSQSLLNSRTRKNYLAWYQQKPGQSPKLLIYWASTRESGVPDRFTGSGSGTDFTLTISSVQAEDLAVYYCKQSYNLWTFGGGTRLEIK
notes: Recombinant mouse IgG2a or mIgG1 format, by assay; also called antibody 22
As for B3, the EC50 in assay [1] worked out at 0.136 µg/mL. Also, the binding result in assay [7] is reported as “no binding (tested: 7.3 µg/mL highest concentration)”. In assay [2], this molecule gave a dissociation rate constant (koff) of 0.000325 s⁻¹ and a kon of 20700 M⁻¹ s⁻¹. In [3], this molecule yielded a half-inhibitory concentration (IC50) of 0.482 µg/mL. In assay [8], this molecule yielded a Kd of 15.7 nM. In assay [4], the “Phagocytic index” value is 106 Raji cells ingested per 100 macrophages.

B4: Candidate 19 (VL008-AL17-7G1-7K6), mouse IgG (antibody, V domains shown)
VH: QVQLQQSGPELVKPGASVKISCKASVYTFTDYYINWVKQRPGQGLEWVGWIFPGSGLTYYNKKFKGKATLTVDKSSSTAYMLLSSLTSEDSAVYFCARPYYGSRWDYAMDYWGQGTSVTVSS
VL: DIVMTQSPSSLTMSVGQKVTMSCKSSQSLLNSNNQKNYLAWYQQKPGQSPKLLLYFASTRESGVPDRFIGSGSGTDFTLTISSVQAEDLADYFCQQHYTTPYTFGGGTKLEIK
notes: as for B1
In assay [9], B4 had a half-maximal effective concentration (EC50) of 1.1 nM. Moreover, a half-maximal response in assay [1] (EC50) required 0.165 µg/mL. In addition, the binding result in assay [7] is recorded as “no binding (tested: 7.3 µg/mL highest concentration)”. In [2], this molecule came in with an equilibrium dissociation constant (Kd) of 2.25 nM, an off-rate constant (koff) of 0.000176 s⁻¹ and an on-rate (kon) of 79000 M⁻¹ s⁻¹. Further, the IC50 in assay [3] was 0.858 µg/mL. The “Phagocytic index” value in assay [4] is 73.9 Raji cells ingested per 100 macrophages.

B5: Candidate 19, chimeric hIgG format (hIgG1 or hIgG4) (antibody, V domains shown)
VH: B4 VH
VL: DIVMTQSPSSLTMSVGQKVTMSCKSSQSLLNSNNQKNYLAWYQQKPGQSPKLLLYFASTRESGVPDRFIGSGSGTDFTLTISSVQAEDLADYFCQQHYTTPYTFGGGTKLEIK
notes: also called Candidate 19 (hIgG format)
In the case of B5, the values for the concentration for half-maximal inhibition (IC50) in assay [10] and in assay [11] were 0.369 µg/mL and 2.46 nM, respectively.

B6: hIgG4 chimeric candidate 20 (mouse VH0/VL0, human Fcγ4-S228P and human Kappa backbone) (antibody, V domains shown)
VH: QVQLKQSGAELVRPGASVKLSCKASGYSFTDYYINWVKQRPGQGLEWIARIYPGIGNTYYNKKFKGKATLTAEKSSSTAYMQLNSLTSEDSAVYFCARGHYGRGMDYWGQGTSVTVSS
VL: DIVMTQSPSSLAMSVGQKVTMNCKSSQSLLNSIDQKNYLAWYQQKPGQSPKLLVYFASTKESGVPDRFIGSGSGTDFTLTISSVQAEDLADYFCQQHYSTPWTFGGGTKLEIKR
notes: hIgG4-S228P/kappa; also called Chim; 20; Chim 20
The molecule B6 came in with a Bmax2 in assay [12] of 2.2 OD value. Besides, the half-maximal inhibitory concentration (IC50) came out at 0.138 µg/mL in assay [13] and 0.11 µg/mL in assay [22]. Also, the results for the equilibrium binding constant in assay [14] and in assay [29] were 38.8 pM and 27.3 pM, respectively. Further, the “EC50 (read off the curve)” value in [15], in assay [16], in assay [26], in [31] and in assay [36] was around 0.1 µg/mL throughout. Besides, the “EC50 ratio Deglycosylated/Glycosylated” value in [17] came to 1.7 ratio. In addition, in assay [17], the “EC95 ratio Deglycosylated/Glycosylated” value was 5 ratio. Besides, the EC50 stood at 0.15 µg/mL in assay [18], 0.0474 nM in assay [19], 0.0751 µg/mL in [28] and 0.028 nM in [34]. Moreover, the EC95 in [19] is 3.33 nM; in [34], 0.667 nM. Further, the binding result in assay [20] is reported as “no binding”. For the same molecule, the “IC50 (read off the curve)” value in [21], in assay [23], in [24], in assay [33] and in assay [35] was around 0.2 µg/mL in each case. Also, the Bmax in assay [25] turned out to be 2.9 OD value. In addition, the koff was 0.000505 s⁻¹ in assay [27] and 0.000543 s⁻¹ in assay [32]. Moreover, the Kd in assay [30] came to 3.22 nM; in assay [32] it was 2.48 nM. The kon came to 169000 M⁻¹ s⁻¹ in assay [30] and 225000 M⁻¹ s⁻¹ in assay [32].

The record behind these values is patent publication US20220356245A1 (FORTY SEVEN, published 2022).
